Consider one substance from EP0799050B1, “RADIOLABELED ANNEXIN-GALACTOSE CLUSTER CONJUGATES” (NEORX CORPORATION, priority 1994, dated 1996).

This series can be described thus: blood clearance in the swine model. Particulars: in vivo. As to the method:
Annexin V-galactose was radiolabeled with technetium-99m using a diamide dimercaptide (N2S2) chelate as described by Kasina et. al., J. Nucl. Med. 32: 1445-51, 1991. The preformed active ester chelate was diluted with 2.0 ml water and purified before conjugation to annexin V-galactose using a modified conditioned C-18 column (commercially available from J.T. Baker), as described by Fritzberg et. al., Proc. Natl. Acad. Sci. USA 85: 4025-29, 1988, washing with 2.0 ml water eight times followed by drying the column for 5 min and eluting with 100% acetonitrile. The solvent was removed under a steady stream of N2. Then 0.15 ml of PBS, 0.35 ml of annexin V-galactose (4.7:1 galactose:annexin V) at 1.0 mg/ml, and 0.2 ml of 0.2M bicarbonate buffer (pH 10.0) were added for conjugation to Tc-99m-N2S2-TFP ester. […] Fractions of 1.0 ml were collected, and fractions containing annexin V were pooled. Protein concentration was determined by UV absorption at 280 nm. […] The ITLC sheets were cut into two halves, and each half was counted in a gamma counter or a dose calibrator. […] An animal model, as previously described in Example III, was employed to evaluate blood clearance of the molecules.

Take “Tc-99m-annexin V: annexin V radiolabeled with Tc-99m by a diamide dimercaptide N2S2 chelate (Example I)”: the “%ID/g a” value is “a = 0.0389 %ID/g”, the “%ID/g b” value is reported as “b = 0.0300 %ID/g”, the t1/2 a result is listed as “a = 9.6 min” and the t1/2 b entry is “b = 46 min”.
